Laboratory results as given in patent US20250207140.

Target: SARS-CoV-2 spike protein (original strain) (SARS-CoV-2) (UniProt P0DTC2)
Assay: flow

With Control (-) Apt targeting CD8 the Kd was 312 nM.
